Test [1] concerns the target human IL-6 (Homo sapiens, UniProt P05231). The test can be described thus: SPR. (In general: SPR reads the build-up and loss of mass on a sensor chip optically.)
For test [2], the target named is cynomolgus IL-6 (cynomolgus, UniProt P79341). The test can be described thus: SPR.
Sequence of cynomolgus IL-6 (P79341 28-212): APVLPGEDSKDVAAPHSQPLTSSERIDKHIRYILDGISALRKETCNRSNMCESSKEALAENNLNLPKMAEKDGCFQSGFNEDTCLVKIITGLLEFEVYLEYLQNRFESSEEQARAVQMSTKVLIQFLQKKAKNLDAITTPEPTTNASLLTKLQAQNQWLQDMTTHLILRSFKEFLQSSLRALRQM

Sequence of human IL-6 (P05231 30-212): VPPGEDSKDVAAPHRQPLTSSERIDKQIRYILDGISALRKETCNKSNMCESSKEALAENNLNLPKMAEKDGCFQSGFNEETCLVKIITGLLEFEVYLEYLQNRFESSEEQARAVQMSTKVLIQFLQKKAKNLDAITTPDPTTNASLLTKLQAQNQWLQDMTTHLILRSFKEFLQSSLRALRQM

B1: olokizumab (antibody, V domains shown)
VH: EVQLVESGGGLVQPGGSLRLSCAASGFNFNDYFMNWVRQAPGKGLEWVAQMRNKNYQYGTYYAESLEGRFTISRDDSKNSLYLQMNSLKTEDTAVYYCARESYYGFTSYWGQGTLVTVSS
VL: DIQMTQSPSSLSASVGDRVTITCQASQDIGISLSWYQQKPGKAPKLLIYNANNLADGVPSRFSGSGSGTDFTLTISSLQPEDFATYYCLQHNSAPYTFGQGTKLEIK
As for B1, binding in test [1] was characterised by a dissociation constant (Kd) of 0.01 nM. Moreover, the binding result in test [2] is given as “binds”.

For orientation: Kd means the concentration at which binding is half-saturated. A high value points to weaker binding.

The values above are taken from PMC4011921 (mAbs, 2014).
